System: MS2 coat protein
Assay: apparent KD of MS2 coat protein; designed switch direction (-1 OFF switch, 1 ON switch): 1; higher = weaker reporter binding
Procedure, shortened: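 Stalled E. coli RNA polymerase transcribed designed RNA switches on Illumina chips, which were then titrated with SNAP-549-labelled MS2 coat protein, doubling from 0.7 or 1.5 nM to 3 µM. Steps lasted from 0.8–1.5 h at the lowest concentration to 10–20 min at the highest. The apparent KD is each design's median over clusters of curve-fitted normalised fluorescence.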

[1] = input ligand: microRNA oligo, concentration not stated
[2] = Eterna round: R95, input ligand: FMN 200 uM
[3] = Eterna round: R95, input ligand: microRNA oligo, concentration not stated
[4] = Eterna round: R95, input ligand: none

AUAAAUAACACAGGAUAUCCGCACGGGUAGUGCGGAGAAGGGUGAACGUCGGCUCUCGCCAACAUGAGGAUCACCCAUGUAAAG [Letiusle] (Eterna round: R96, puzzle: Same State NG 1)
apparent KD of MS2 coat protein (input ligand: FMN 200 uM): 512 nM
apparent KD of MS2 coat protein [1]: 27.7 nM
apparent KD of MS2 coat protein (input ligand: none): 41.1 nM

UUAAUAAUGAUAGGAUAUACAUGAGGAAUUCUCGUAGAAGGAUCAUGACAUGAGGAUCACCCAUGUAUCGCUCGAUAGAGCGUA [Mat - Same State NG 1 - JL mod - D35] (Eterna round: R96, puzzle: Same State NG 1)
apparent KD of MS2 coat protein (input ligand: FMN 200 uM): 447 nM
apparent KD of MS2 coat protein [1]: 149 nM
apparent KD of MS2 coat protein (input ligand: none): 326 nM

GGAGCCAAGGCAGGAUAUUCAUAUUAAAACAUGAGGAUCACCCAUGUAAAGGCCAGAAGGCCUUGGGAGAAGGGCCAUGGCUCG [Xeonanis - 13 mod1] (Eterna round: R96, puzzle: Same State NG 2)
apparent KD of MS2 coat protein (input ligand: FMN 200 uM): 19.9 nM
apparent KD of MS2 coat protein [1]: 37.6 nM
apparent KD of MS2 coat protein (input ligand: none): 49 nM

UACCAACAUAUAGAACAAGCGUGCUCGUCACAUGAGGAUCACCCAUGUCUAAACGCUGUACCUACAUCCUCAGCGCC [Eddiso] (puzzle: Sensor for hsa-mir-208a)
apparent KD of MS2 coat protein [2]: 23.3 nM
apparent KD of MS2 coat protein [3]: 24.6 nM
apparent KD of MS2 coat protein [4]: 22.8 nM

AGUCCAGCAUGAGCUGGACAAAAGCAUGUACAUGAGGAUCACCCAUGUCAUGUACAAGCUUUUUGCUCGUCUUAAAA [Mat - hsa-mir-208a - Mod of JL - D1] (puzzle: Sensor for hsa-mir-208a)
apparent KD of MS2 coat protein [2]: 512 nM
apparent KD of MS2 coat protein [3]: 16.7 nM
apparent KD of MS2 coat protein [4]: 627 nM

AUUAUUAAUGCAGGAUAUGAUUAACAUGAGGAUCACCCAUGUGGUGUUGUGAGUAAGGAGAGAGAUCAGAAGGGCAUUUUUUUU [JMF's solution 5] (Eterna round: R96, puzzle: Same State NG 2)
apparent KD of MS2 coat protein (input ligand: FMN 200 uM): 317 nM
apparent KD of MS2 coat protein [1]: 263 nM
apparent KD of MS2 coat protein (input ligand: none): 361 nM

AAAAGAAGAAUGUAGGAUAUACAAAAGAACACAUGAGGAUCACCCAUGUGAGCCUAAUGUAAGAAGUAGAAGGACAAAGAGAAAA [Default title] (puzzle: Same State 2)
apparent KD of MS2 coat protein [2]: 91.3 nM
apparent KD of MS2 coat protein [3]: 62 nM
apparent KD of MS2 coat protein [4]: 67.3 nM

GUAAAACAUGAGGAUCACCCAUGUCAUCUAAGUCGAGGAUAUGGGAAUUAAUUAAUUAAACCAGAAGGCGAAAUUG [Mat - Same State 1 - D97] (puzzle: Same State 1)
apparent KD of MS2 coat protein [2]: 44.6 nM
apparent KD of MS2 coat protein [3]: 844 nM
apparent KD of MS2 coat protein [4]: 606 nM

AAACGCAGCAUAUCGCUGCGACAUGAGGAUCACCCAUGUACACAGGAUAUCGCGGCAUACCGCCACGAGAAGGGUGAUCAAGAC [Vebixeriso] (Eterna round: R96, puzzle: Same State NG 3)
apparent KD of MS2 coat protein (input ligand: FMN 200 uM): 676 nM
apparent KD of MS2 coat protein [1]: 82.9 nM
apparent KD of MS2 coat protein (input ligand: none): 45.2 nM

GAGCCAGUCCGAGGAUAUUCGUAGUACCACAUGAGGAUCACCCAUGUGGGCUCAGAAGAGCCCUUGGAGAAGGCGGGCUGGCUC [SS-NG2-LRO20] (Eterna round: R96, puzzle: Same State NG 2)
apparent KD of MS2 coat protein (input ligand: FMN 200 uM): 9.67 nM
apparent KD of MS2 coat protein [1]: 5.99 nM
apparent KD of MS2 coat protein (input ligand: none): 12.4 nM

GUAGAUAUAACGGAGGAUAUUCAAUGAGAGACAUGAGGAUCACCCAUGUAAGAGUGAGAUGAUAGGAAGAAGGCUGAGAGAGAUG [Altered State 2-9 - Jieux - Same State 2] (puzzle: Same State 2)
apparent KD of MS2 coat protein [2]: 140 nM
apparent KD of MS2 coat protein [3]: 139 nM
apparent KD of MS2 coat protein [4]: 102 nM

— the supplement of paper PMC9170038
